Laboratory results from the supplement of paper PMC11246515.
± gives the standard deviation of the averaged measurements.

Experiment: total protein half-life in vivo (active degradation + dilution); higher = more stable protein
[1] = E. coli NCM3722 delta-clpP delta-lon delta-hslV, growth: N-lim chemostat, doubling time 6 h
[2] = E. coli NCM3722 delta-clpP, growth: N-lim chemostat, doubling time 6 h
[3] = E. coli NCM3722 delta-hslV, growth: N-lim chemostat, doubling time 6 h
[4] = E. coli NCM3722 delta-lon, growth: N-lim chemostat, doubling time 6 h
[5] = E. coli NCM3722 delta-smpB, growth: N-lim chemostat, doubling time 6 h
[6] = wild type E. coli NCM3722, growth: C-lim chemostat, doubling time 3 h
[7] = wild type E. coli NCM3722, growth: C-lim chemostat, doubling time 6 h
[8] = wild type E. coli NCM3722, growth: C-lim chemostat, doubling time 12 h
[9] = wild type E. coli NCM3722, growth: N-lim chemostat, doubling time 6 h
[10] = wild type E. coli NCM3722, growth: N-lim chemostat, doubling time 12 h
[11] = wild type E. coli NCM3722, growth: P-lim chemostat, doubling time 6 h
[12] = wild type E. coli NCM3722, growth: P-lim chemostat, doubling time 12 h

Row | Sequence | total protein half-life in vivo [1] [h] | total protein half-life in vivo [2] [h] | total protein half-life in vivo [3] [h] | total protein half-life in vivo [4] [h] | total protein half-life in vivo [5] [h] | total protein half-life in vivo [6] [h] | total protein half-life in vivo [7] [h] | total protein half-life in vivo [8] [h] | total protein half-life in vivo [9] [h] | total protein half-life in vivo [10] [h] | total protein half-life in vivo [11] [h] | total protein half-life in vivo [12] [h]
1 | MNIPQLTALCLRYHGVLLDASEEVVHVAVVDAPSHELLDALHFATTKRIEITCWTRQQMEGHASRTQQTLPVAVQEKHQPKAELLTRTLQSALEQRASDIHIEPADNAYRIRLRIDGVLHPLPDVSPDAGVALTARLKVLGNLDIAEHRLPQDGQFTVELAGNAVSFRIATLPCRGGEKVVLRLLQQVGQALDVNTLGMQPLQLADFAHALQQPQGLVLVTGPTGSGKTVTLYSALQKLNTADINICSVEDPVEIPIAGLNQTQIHPRAGLTFQGVLRALLRQDPDVIMIGEIRDGETAEIAIKAAQTGHLVLSTLHTNSTCETLVRLQQMGVARWMLSSALTLVIAQRLVRKLCPHCRRQQGEPIHIPDNVWPSPLPHWQAPGCVHCYHGFYGRTALFEVLPITPVIRQLISANTDVESLETHARQAGMRTLFENGCLAVEQGLTTFEELIRVLGMPHGE | 3.89 | – | – | – | – | – | – | – | – | – | – | –
2 | MNIRDLEYLVALAEHRHFRRAADSCHVSQPTLSGQIRKLEDELGVMLLERTSRKVLFTQAGMLLVDQARTVLREVKVLKEMASQQGETMSGPLHIGLIPTVGPYLLPHIIPMLHQTFPKLEMYLHEAQTHQLLAQLDSGKLDCVILALVKESEAFIEVPLFDEPMLLAIYEDHPWANRECVPMADLAGEKLLMLEDGHCLRDQAMGFCFEAGADEDTHFRATSLETLRNMVAAGSGITLLPALAVPPERKRDGVVYLPCIKPEPRRTIGLVYRPGSPLRSRYEQLAEAIRARMDGHFDKVLKQAV [P0ACQ4] | 6.42 ± 0.14 | 6.57 ± 1.4 | 4.79 ± 0.37 | 4.56 ± 0.12 | 4.11 ± 0.24 | 2.62 ± 0.37 | 5.1 ± 0.76 | 9.67 ± 2.1 | 4.51 ± 0.26 | 10.4 ± 2.9 | 4.768 ± 0.012 | 9.98 ± 0.13
3 | MNIYRLSFVSCLVMAMPCAMAVEFNLNVLDKSMRDRIDISLLKEKGVIAPGEYFVSVAVNNNKISNGQKINWQKKGDKTIPCINDSLVDKFGLKPDIRQSLPQIDRCIDFSSRPEMLFNFDQANQQLNISIPQAWLAWHSENWAPPSTWKEGVAGVLMDYNLFASSYRPQDGSSSTNLNAYGTAGINAGAWRLRSDYQLNKTDSEDNHDQSGGISRTYLFRPLPQLGSKLTLGETDFSSNIFDGFSYTGAALASDDRMLPWELRGYAPQISGIAQTNATVTISQSGRVIYQKKVPPGPFIIDDLNQSVQGTLDVKVTEEDGRVNNFQVSAASTPFLTRQGQVRYKLAAGQPRPSMSHQTENETFFSNEVSWGMLSNTSLYGGLLISDDDYHSAAMGIGQNMLWLGALSFDVTWASSHFDTQQDERGLSYRFNYSKQVDATNSTISLAAYRFSDRHFHSYANYLDHKYNDSDAQDEKQTISLSVGQPITPLNLNLYANLLHQTWWNADASTTANITAGFNVDIGDWRDISISTSFNTTHYEDKDRDNQIYLSISLPFGNGGRVGYDMQNSSHSTIHRMSWNDTLDERNSWGMSAGLQSDRPDNGAQVSGNYQHLSSAGEWDISGTYAASDYSSVSSSWSGSFTATQYGAAFHRRSSTNEPRLMVSTDGVADIPVQGNLDYTNHFGIAVVPLISSYQPSTVAVNMNDLPDGVTVAENVIKETWIEGAIGYKSLASRSGKDVNVIIRNASGQFPPLGADIRQDDSGISVGMVGEEGHAWLSGVAENQLFTVVWGEQSCIIHLPERLEDTTKRLILPCH | 3.41 ± 0.16 | 2.97 | – | – | – | – | 4.23 | – | 2.94 | 3.79 | 3.94 | 11 ± 0.78
4 | MNKAKRLEILTRLRENNPHPTTELNFSSPFELLIAVLLSAQATDVSVNKATAKLYPVANTPAAMLELGVEGVKTYIKTIGLYNSKAENIIKTCRILLEQHNGEVPEDRAALEALPGVGRKTANVVLNTAFGWPTIAVDTHIFRVCNRTQFAPGKNVEQVEEKLLKVVPAEFKVDCHHWLILHGRYTCIARKPRCGSCIIEDLCEYKEKVDI [P0AB83] | 5.59 ± 0.65 | 5.67 ± 0.41 | 5.9 ± 0.36 | – | 5.611 ± 0.039 | 3.22 ± 0.093 | 5.58 ± 0.078 | 10.7 ± 0.51 | 5.79 ± 0.092 | 11.95 ± 0.045 | 5.88 ± 0.55 | 10.9 ± 0.86
5 | MNKETQPIDRETLLKEANKIIREHEDTLAGIEATGVTQRNGVLVFTGDYFLDEQGLPTAKSTAVFNMFKHLAHVLSEKYHLVD [P0AB61] | 5.24 ± 0.27 | 3.59 | 3.12 ± 0.036 | 3.65 ± 0.14 | 2.91 ± 0.23 | 2.64 | 4.89 ± 0.3 | 9.62 ± 3.9 | 2.5 ± 0.063 | 4.72 | 6.02 | –
6 | MNKFEDIRGVAFDLDGTLVDSAPGLAAAVDMALYALELPVAGEERVITWIGNGADVLMERALTWARQERATQRKTMGKPPVDDDIPAEEQVRILRKLFDRYYGEVAEEGTFLFPHVADTLGALQAKGLPLGLVTNKPTPFVAPLLEALDIAKYFSVVIGGDDVQNKKPHPDPLLLVAERMGIAPQQMLFVGDSRNDIQAAKAAGCPSVGLTYGYNYGEAIDLSQPDVIYQSINDLLPALGLPHSENQESKND | 3.53 ± 0.37 | 3.12 ± 0.096 | 2.83 | 4.24 ± 1.1 | 3.05 ± 0.14 | 3.21 ± 0.34 | 5.56 ± 0.92 | 8.69 ± 0.53 | 2.87 ± 0.17 | 4.01 ± 0.23 | 4.14 ± 1 | 10.5 ± 1.2
7 | MNKIFSSHVMPFRALIDACWKEKYTAARFTRDLIAGITVGIIAIPLAMALAIGSGVAPQYGLYTAAVAGIVIALTGGSRFSVSGPTAAFVVILYPVSQQFGLAGLLVATLLSGIFLILMGLARFGRLIEYIPVSVTLGFTSGIGITIGTMQIKDFLGLQMAHVPEHYLQKVGALFMALPTINVGDAAIGIVTLGILVFWPRLGIRLPGHLPALLAGCAVMGIVNLLGGHVATIGSQFHYVLADGSQGNGIPQLLPQLVLPWDLPNSEFTLTWDSIRTLLPAAFSMAMLGAIESLLCAVVLDGMTGTKHKANSELVGQGLGNIIAPFFGGITATAAIARSAANVRAGATSPISAVIHSILVILALLVLAPLLSWLPLSAMAALLLMVAWNMSEAHKVVDLLRHAPKDDIIVMLLCMSLTVLFDMVIAISVGIVLASLLFMRRIARMTRLAPVVVDVPDDVLVLRVIGPLFFAAAEGLFTDLESRLEGKRIVILKWDAVPVLDAGGLDAFQRFVKRLPEGCELRVCNVEFQPLRTMARAGIQPIPGRLAFFPNRRAAMADL [P0AFR2] | 5.99 ± 0.062 | 6.21 ± 0.72 | 5.51 | 5.97 ± 0.73 | 5.82 ± 0.46 | 1.95 | 6.39 ± 0.93 | > 16 | 6.43 ± 1.8 | > 16 | – | 7.77
